Legend:
[1] = biological target: FplA(20–431) (Fusobacterium nucleatum subsp. nucleatum, UniProt Q8R6F6); type: biochemical, F. nucleatum 25586
[2] = test system: CCCCCCC(=O)Oc1ccc2c(C)cc(=O)oc2c1; assay: purified protein, by the assay type
Protocol: (§1) In detail, FplA was used at 1 nM in the reaction, and substrate (50 mM stock in 100% DMSO) dilutions (0–200 μM) and reactions were carried out in reaction buffer (50 mM Tris, pH 8.5, 50 mM NaCl, 0.025% BOG). All samples, including controls, contained equal concentrations of DMSO (0.4%). Reactions were run at 26 °C for 30 min with 3 s of shaking between continuous fluorescent monitoring (excitation = 360 nm, emission = 449 nm) every 2 min on a SpectraMax M5^e plate reader. Relative fluorescence units measured upon cleavage of substrate ester bonds and release of the acyl chain were converted to the concentration of product (4-methylumbeliferone; 4-Mu) created by establishing a standard curve using pure 4-Mu (Sigma-Aldrich).
(§2) The steady-state kinetic parameters for each substrate were determined using GraphPad Prism version 6 (GraphPad Software, La Jolla, CA) by fitting the initial rate data (n = 2) to the Michaelis–Menten equation, (Eq. 1) v=Vmax⁡[S]/(Km+[S]) to obtain the values reported in Fig. 2 and supplemental Fig. S3.

[3] = test system: CCCCCCCCCCCCCCCC(=O)Oc1ccc2c(C)cc(=O)oc2c1; assay: purified protein, by the assay type; settings: other: Fig. 4C/D, substrate of FplA(20–431), 1 nM enzyme, pH 8.5, 26 °C
Protocol: as §1, §2

[4] = test system: CCCC(=O)Oc1ccc2c(C)cc(=O)oc2c1; assay: purified protein, by the assay type; settings: other: Fig. 4C/D, substrate of FplA(20–431), 1 nM enzyme, pH 8.5, 26 °C
Protocol: as §1, §2

[5] = other: Fig. 4E, 4-MuH as substrate, construct FplA20-350, pH 8.5, 26.0 °C
[6] = other: Fig. 4E, 4-MuH as substrate, construct FplA60-350, pH 8.5, 26.0 °C
[7] = other: Fig. 4E, 4-MuH as substrate, construct FplA60-431, pH 8.5, 26.0 °C
[8] = other: Fig. 4E, 4-MuH as substrate, construct FplA20-431, pH 8.5, 26.0 °C

Sequence of FplA(20–431) (Q8R6F6 20-431 limits assumed): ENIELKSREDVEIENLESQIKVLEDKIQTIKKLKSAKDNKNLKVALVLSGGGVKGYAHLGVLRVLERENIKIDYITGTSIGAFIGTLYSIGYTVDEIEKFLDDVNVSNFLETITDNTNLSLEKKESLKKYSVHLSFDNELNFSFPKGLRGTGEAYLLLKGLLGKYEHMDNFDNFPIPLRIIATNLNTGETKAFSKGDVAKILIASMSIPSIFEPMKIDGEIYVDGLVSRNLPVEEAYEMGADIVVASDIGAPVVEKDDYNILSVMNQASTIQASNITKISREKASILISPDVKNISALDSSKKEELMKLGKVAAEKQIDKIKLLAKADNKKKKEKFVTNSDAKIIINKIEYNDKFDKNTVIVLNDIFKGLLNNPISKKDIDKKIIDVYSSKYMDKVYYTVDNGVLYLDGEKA

With CCCCC/C=C\C/C=C\C/C=C\C/C=C\CCCC(=O)C(F)(F)F [ATFMK, arachidonyl trifluoromethyl ketone] the “Inhibition of FplA, potency in words” value [1] was “potent inhibitors”.

“FplA20-350 (Fusobacterium nucleatum subsp. nucleatum ATCC 25586)” showed a Km [2, 5] of 23.5 ± 6.5 µM and a kcat [2, 5] of 75 ± 6.2 s⁻¹.

Compound “FplA60-350 (Fusobacterium nucleatum subsp. nucleatum ATCC 25586)” has a Km [2, 6] of 17.7 ± 8.4 µM, a kcat [2, 6] of 2.1 ± 0.3 s⁻¹ and a kcat/Km [2, 6] of 120000 ± 60000 s⁻¹ M⁻¹.

In the case of “FplA60-431 (Fusobacterium nucleatum subsp. nucleatum ATCC 25586)”, the Km [2, 7] is reported as 18.2 ± 7.4 µM, the kcat [2, 7] is reported as 2.8 ± 0.3 s⁻¹ and the kcat/Km [2, 7] is reported as 150000 ± 60000 s⁻¹ M⁻¹.

Work on “FplA(20–431) (Fusobacterium nucleatum subsp. nucleatum ATCC 25586)” yielded a Km [3] of 23 µM, a Km ([2]; other: Fig. 4C/D, substrate of FplA(20–431), 1 nM enzyme, pH 8.5, 26 °C) of 19 µM and a Km [2, 8] of 19.6 ± 5.0 µM. The kcat [2, 8] was 55 ± 4.0 s⁻¹, the kcat/Km [2, 8] was 2.8e+06 ± 700000 s⁻¹ M⁻¹ and the Km [4] was 500 µM.
